Tests used:
C. elegans [1] = experiment: Hypoxia and reoxygenation with hypoxic preconditioning; assay type: in vivo, Caenorhabditis elegans; settings: mtON activation during the short hypoxia (PC)
Description: Experiments were carried out using a hypoxic chamber (Coy Laboratory Products, 5%/95% H2/N2 gas, palladium catalyst) at 26° C. with 50-100 animals per plate. O2 was <0.01%. Hypoxic preconditioning (PC) duration was 4 h, and control animals were incubated at 26° C. in room air for the same time. 1 Hz illumination (Quantum LED, 0.02 mW/mm^2) was carried out during PC period or during the hypoxic period. Hypoxic exposure was for 18.5, 21 h after PC. Twenty-four hours after hypoxia exposure, animals that were moving or those that moved in response to a light touch to the head were scored as alive. Data from days where PC was at least 15% effective for both +ATR and −ATR were used. Animals supplemented with ATR were allowed to lay eggs onto plates with no ATR that were subsequently used for HR experiments to minimize confounding effects of ATR. ATR from the parent animal was sufficient to provide active mtON in progeny as tested by the azide toxin assay described above. […] FCCP dissolved in ethanol was deposited onto seeded NGM plates.

[2] = system: isolated C. elegans mitochondria; experiment: ATP measurement in isolated mitochondria (luciferase); assay type: biochemical, Caenorhabditis elegans; settings: isolated mitochondria supplied with ADP, mtON activation
Description: Relative ATP levels were determined in isolated mitochondria given a known amount of ADP to test the ability of mtON to drive ATP synthesis. A luciferase bioluminescence kit was used according to the manufacturer's instructions (Invitrogen™ Molecular Probes™, A22066). Mitochondria were stirred in MRB at 0.5 mg/ml with 1 mg/ml fat-free BSA, 600 μM ADP, and 2 μM rotenone. 5 mM succinate was used for a control for maximum ATP level, and 0.001 mg/ml oligomycin A was used as a zero ATP synthesis control. Mitochondrial suspensions were immediately frozen with liquid nitrogen after 1, 5, or 10 min light exposure (XCite LED, 0.02 mW/mm^2). Samples were then thawed on ice, centrifuged at 14,800 g, and supernatant was collected and run at 1:100 dilution in MRB in the luminescence assay. Oligomycin A control values were subtracted from experimental reads, and data were then normalized to luminescent signal from succinate control samples (complete ADP conversion confirmed by monitoring 02 consumption rate transitions).

CD8+ T cells = experiment: CD8+ T cell migration on ICAM-1+CXCL12; assay type: cell-based, mouse
Description: The velocity (A), displacement (B), track length (C), meandering index (D), and percent migrating cells (E) of Mock (or GFP) and mtOn expressing Day 4 CD8+ T cells migrating on ICAM-1+CXCL12. The percentage of migrating cells was calculated as the number of cells migrating 5-20 μm/min divided by the total number of cells in the field of view during the 20-minute movie. All movies received 500 nm illumination and were analyzed with Volocity software. All data shown as mean±SEM and analyzed by a two-tailed unpaired t-test with Welch's correction (A-D: includes four independent experiments, Mock: 271 cells, mtOn: 312 cells; E: n=4 movies on the same day). ns, not significant.
After confirming mtON is expressed correctly, there followed additional functional experiments, specifically looking at cell migration in CD8+ T cells expressing mtON (PA-OxPhos). The migration conditions were the same as in previously described experiments, except we now used the Texas Red filter (˜500 nm) on an epifluorescent microscope to activate mtON while CD8+ T cells are migrating on ICAM-1+CXCL12. CD8+ T cells were sorted based on GFP expression and the mock negative control cells were GFP negative. Both mock and mtON expressing CD8+ T cells were treated identically.

C. elegans [3] = experiment: Healthspan: mobility on solid media and in liquid with age; assay type: in vivo, Caenorhabditis elegans
Description: Light treatment began at day 1 of adulthood for all experiments, a, Survival curves of mtON-expressing animals (extrachromosomal array). […] One-way ANOVA with Tukey's test; n=30 animals for day 4 conditions and 40 animals for day 10. […] One-way ANOVA with Tukey's test, day 10 no ATR light versus day 10 ATR light; P=0.002, all other significant comparisons, P=0.0001; n=32, 32, 40 and 40 animals for each violin from left to right. Data are median±quartiles. f, Model showing effects of mtON activation in vivo. The dotted arrow represents the molecular mechanisms to be investigated that link Δψm to aged physiology.

C. elegans [4] = experiment: In vivo mitochondrial membrane potential (TMRE) in aged animals; set-up: species or system Caenorhabditis elegans
Description: FIG. 8 is a composite of drawings showing that mtON restores lost membrane potential and increases lifespan. […] One-way ANOVA with Tukey's post hoc test for multiple comparisons, *p<0.05. Data are means±standard error of the mean. Panel B) mtON activation throughout adult life extends lifespan (n=?). […] Log rank Mantel Cox test for survival comparison, p=0.018.
Panel A) Representative images of day 4 adult animals exposed to 100 nM TMRE for 24 hours. Pharynx region of interest (ROI) is outlined in dotted white lines. All animals were expressing mtON through single-copy CRISPR/Cas9 insertion to the genome. Panel B) Quantification of TMRE fluorescence in mtON-expressing day 4 adult animals exposed to 100 nM TMRE for 24 hours. Whole-body fluorescence as well as pharynx ROIs were quantified. Control represents animals exposed to light but without ATR supplementation. Statistics are student's two tailed unpaired t tests. * p<0.001.
Scale bar, 250 μm. c, Quantification of relative TMRE fluorescence. One-way analysis of variance (ANOVA) with Tukey's multiple comparisons test, day 1 versus day 4, P=0.0001, day 1 versus day 10, P=0.0002, n=44, 18 and 30. Data are median±quartiles (dotted lines). d, Pharynx TMRE fluorescence normalized to mitochondrial mass in day 4 worms. […]

B1: mtON: fusion of the 187 N-terminal amino acids of mouse IMMT1 to the light-activated proton pump (Mac) from Leptosphaeria maculans (protein)
chain: MLRACQLSGVTVAAQSCLCGKFVLRPLRPCRRYSTSSSSGLTAGKIAGAGLLFVGGGIGGTILYAKWDSHFRESVEKTIPYSDKLFGMVLGSAPYTVPLPKKPVQSGPLKISSVSEVMKDSKLPVAQSQKTKGDTPASAASTGAAQIISAAGDTLSVPAPAVQHEDTIKTECPNTNEGKSTSETTEEPAGLIVDQFEEVLMKTSQLFPLPTATQSAQPTHVAPVPTVLPDTPIYETVGDSGSKTLWVVFVLMLIASAAFTALSWKIPVNRRLYHVITTIITLTAALSYFAMATGHGVALNKIVIRTQHDHVPDTYETVYRQVYYARYIDWAITTPLLLLDLGLLAGMSGAHIFMAIVADLIMVLTGLFAAFGSEGTPQKWGWYTIACIAYIFVVWHLVLNGGANARVKGEKLRSFFVAIGAYTLILWTAYPIVWGLADGARKIGVDGEIIAYAVLDVLAKGVFGAWLLVTHANLRESDVELNGFWANGLNREGAIRIGEDDGAR
modifications: Synthetic Complete mtON fusion protein sequence
C. elegans [1]
  protection conferred by hypoxic preconditioning: suppressed
[2]
  ATP levels: increased ATP levels
CD8+ T cells; vs cells expressing GFP
  overall percentage of migrating CD8+ T cells: large increase
CD8+ T cells; ~500 nm illumination, vs mock
  cell displacement: increase
  cell velocity: increase
  meandering index: increase
C. elegans [3]; day 4 and day 10, mtON activation
  locomotion on solid media: did not affect locomotion
C. elegans [3]; day 10, mtON activation
  mobility in liquid with age: improved mobility
C. elegans [4]; mtON activation for 4 days into adulthood vs age-matched controls
  whole-animal measures of PMF: significantly increased
C. elegans [4]; mtON activation, two different genetic backgrounds
  age-related decline of Δψm: reversed that decline
